One experiment concerns OVCAR8 cells. Put plainly: Antibody internalisation, pHrodo imaging, OVCAR8. It is filed as cell-based. Conditions: 120 nM, 24 hours. The method, then:
(§1) Briefly, 100,000 HEK293 cells engineered to express HER3, HCC95, N87 or OVCAR8 cells were seeded in wells of 96-well tissue culture plates and cultured overnight at 37° C. in 5% CO2. […] The cells in culture were imaged every 30 min for 24 hours, in 4 different fields of each well. The maximum signal intensity in the FITC channel of each field was quantified at 24 hours.

Experiment [1] concerns HEK293 cells engineered to express HER3. Put plainly: Antibody internalisation, pHrodo imaging, HEK293 HER3. Format: cell-based. The settings on record: 120 nM, 24 hours, HEK293 overexpressing HER3. Here is the method:
as §1

For experiment [2], the system named is HER3-mediated signalling (pHER3, pAKT). Description: Inhibition of HER3-mediated signalling in vitro, phospho-western blot. The settings on record: N87 and FaDu cells, 50 μg/ml 4 hrs, NRG 100 ng/ml. It is filed as cell-based. Here is the method:
Briefly, N87 and FaDu cells were seeded in wells of a 6 well plate with 10% serum at 37° C., 5% CO2. After 16 hrs, cells were starved by culture overnight in 1% FBS cell culture medium (to reduce signalling elicited by growth factors in the serum). […] Proteins were then extracted, quantified using standard Bradford protein assay, fractionated by SDS-PAGE, and transferred to nitrocellulose membranes. The membranes were then blocked and immunoblotted with the following antibodies overnight at 4° C. anti-pHER3, anti-pAKT, pan anti-HER3, pan anti-AKT and anti-beta-actin. The blots were visualized via Bio-Rad Clarity Western ECL substrate, and bands were quantified using densiometric analysis; data were normalized to beta actin controls.
N87, FaDu or OvCAR8 cells were seeded in wells in a 6 well plate with 10% serum overnight at 37° C. with 5% CO2. […] Antibodies tested were: 10D1F.FcA (10D1), Seribantumab (SBT), Elegemtumab (LJM), Pertuzumab (PTM), Cetuximab (CTX), and Trastuzumab (TZ).
Before harvesting, cells were stimulated with 100 ng/ml of NRG1, Protein extracted from cell lines were quantified using standard Bradford protein assay, Protein samples (50 μg) were fractionated by SDS-PAGE and transferred to nitrocellulose membrane. […] The blots were quantified using densiometric analysis and data was normalised to beta actin. […]

Experiment [3] concerns the target T1, human HER3 (Homo sapiens, UniProt P21860). Description: BLI competition between anti-HER3 antibodies for binding to HER3. The method, then:
Bio-Layer Interferometry (BLI) experiments were performed using the Octet QK384 system (ForteBio), anti-Penta-HIS (HIS1K) coated biosensor tips (ForteBio, USA) were used to capture His-tagged human HER3 (75 nM; 300 s). […] The variable region of LJM-716 antibody was cloned in the PDZ vector having human IgG1 and IgKappa Fc backbone.
BLI experiments were performed as described in Example 3.5 with one alteration: 400 nM of competing antibodies were used. The variable regions of M-05-74 and M-08-11 antibodies were cloned in the PDZ vector having human IgG1 and IgKappa Fc backbone.

A further experiment concerns FaDu cells. Put plainly: CCK-8 proliferation assay, FaDu cells. It is filed as cell-based. The settings on record: 5 days, from 100 μg/ml. Here is the method: (§2) Cell proliferation was measuring using the CCK-8 proliferation assay (Dojindo, Japan) after a period of 5 days, in accordance with the manufacturers instructions, Briefly 1×CCK-8 solution was added to each well followed by incubation for 2 h at 37° C. The OD was then measured at 450 nm.
In general terms: Tetrazolium assays rely on reduction of a dye to a coloured formazan, in cell work by metabolically active cells.

A further experiment has as its system N87 cells. Description: CCK-8 proliferation assay, N87 cells. It is filed as cell-based. The settings on record: N87, 5 days, from 100 μg/ml. The method, then:
as §2

In the next experiment the target is T2, rat HER3 (Rattus norvegicus, UniProt Q62799).
T2 construct: purchased Sino Biological Inc., China
Put plainly: ELISA cross-reactivity, rat HER3. Format: binding. The method, then:
(§3) ELISAs were used to determine the binding specificity of the antibodies. The antibodies were analysed for binding to human HER3 polypeptide, as well as respective mouse, rat and monkey homologues of HER3 (Sino Biological Inc., China). The antibodies were also analysed for their ability to bind to human EGFR and human HER2 (Sino Biological Inc., China).
(§4) ELISAs were carried out according to standard protocols. Briefly, 96-well plates (Nunc, Denmark) were coated with 0.1 μg/ml of target polypeptide in phosphate-buffered saline (PBS) for 16 h at 4° C. After blocking for 1 h with 1% BSA in […] (TBS) at room temperature, the anti-HER3 antibody was serially diluted with the highest concentration being 10 μg/ml, and added to the plate, Post 1 h incubation at room temperature, plates were washed three times with TBS containing 0.05% Tween 20 (TBS-T) and were then incubated with a HRP-conjugated anti-His antibody (Life Technologies, Inc., USA) for 1 h at room temperature. After washing, plates were developed with colorimetric detection substrate 3,3′,5,5′-tetramethylbenzidine (Turbo-TMB; Pierce, USA) for 10 min. The reaction was stopped with 2M H2SO4, and OD was measured at 450 nm. […]
In general terms: In an ELISA, binding on a coated surface is turned into a signal by an enzyme label.

In another experiment the target is T3, mouse HER3 (Mus musculus, UniProt Q61526).
T3 construct: purchased Sino Biological Inc., China
Put plainly: ELISA cross-reactivity, mouse HER3. Format: binding. The method, then:
as §3, §4

Another experiment deals with cynomolgus macaque HER3. Description: ELISA cross-reactivity, cynomolgus macaque HER3. It is filed as binding. The method, then:
as §3, §4

In another experiment the target is T4, human EGFR (Homo sapiens, UniProt P00533).
T4 construct: purchased Sino Biological Inc., China
Put plainly: ELISA specificity, human EGFR. Format: binding. Conditions: antibody up to 10 μg/ml. Here is the method: as §3
(§5) ELISAs were carried out according to standard protocols. Briefly, 96-well plates (Nunc, Denmark) were coated with 0.1 μg/ml of target polypeptide in phosphate-buffered saline (PBS) for 16 h at 4° C. After blocking for 1 h with 1% BSA in […] (TBS) at room temperature, the anti-HER3 antibody was serially diluted with the highest concentration being 10 μg/ml, and added to the plate, Post 1 h incubation at room temperature, plates were washed three times with TBS containing 0.05% Tween 20 (TBS-T) and were then incubated with a HRP-conjugated anti-His antibody (Life Technologies, Inc., USA) for 1 h at room temperature. […] The reaction was stopped with 2M H2SO4, and OD was measured at 450 nm.
(§6) The antibodies were analysed for their ability to bind to human HER3 polypeptide as well as human HER1 (EGFR) and human HER2 (Sino Biological Inc., China). […]
(§7) ELISAs were carried out according to standard protocols. […] The reaction was stopped with 2M H2SO4, and OD was measured at 450 nm.

The test system of experiment [4] is PI3K/AKT/mTOR and MAPK signalling. Description: Phosphoprotein Antibody Array, FaDu cells. Format: cell-based. The settings on record: 50 μg/ml 4 hrs, NRG 100 ng/ml. Here is the method:
In further experiments the inventors investigated the intracellular signalling pathways affected by anti-HER3 antibody-mediated inhibition of HER3.
FaDu cells were seeded in wells of a 6 well plate with 10% serum at 37° C., 5% CO2. After 16 hrs, cells were starved by culture overnight in 1% FBS cell culture medium. […] Proteins were then extracted, quantified using standard Bradford protein assay, and incubated overnight with pre-blocked Phosphoprotein Antibody Array membrane (Ray Biotech) at 4° C., The membrane was then washed with washing buffer and incubated with detection antibody cocktail for 2 hrs at room temperature, followed by washing and incubation with HRP-Conjugated anti-IgG. After 2 hrs the membrane was washed and probed using the kit detection buffer. Images were captured with Syngene Gbox imaging system, the intensity of each dot/phosphoprotein was measured and percent inhibition was calculated by comparison with intensity measured for cells treated in the same way in the absence of the antibody.

A further experiment concerns the target T5, human HER2 (Homo sapiens, UniProt P04626).
T5 construct: purchased Sino Biological Inc., China
Put plainly: ELISA specificity, human HER2. It is filed as binding. The settings on record: antibody up to 10 μg/ml. Here is the method:
as §3, §5, §6, §7

The target in experiment [5] is T1, human HER3. Put plainly: Immunohistochemistry of frozen human tissue sections. Also on record: from tissue; host or cells: arrays of frozen tissue sections. Conditions: mIgG2a format. The method, then:
Anti-HER3 antibody 10D1F in mIgG2a format was evaluated for its ability to be used in immunohistochemistry for the detection of human HER3 protein.
Processing of sections was performed using Bond reagents (Leica Biosystems). Arrays of commercially-available frozen tissue sections were obtained. Slides were dried in a desiccator for 10 min and then subjected to the following treatments, with water washes and/or TBS-T rinses between steps: (i) fixation by treatment with 100% acetone for 10 min at room temperature; (ii) endogenous peroxidase blocking by treatment with 3% (v/v) H2O2 for 15 min at room temperature; (iii) blocking by treatment with 10% goat serum for 30 min at room temperature, (iv) incubation with 10D1F-mIgG2a at 1:250 dilution of a 6.2 mg/ml solution overnight at 4° C., (v) incubation with HRP-polymer conjugated goat anti-mouse antibody for 30 min at room temperature, and (vi) development with Bond Mixed DAB Refine for 5 min at room temperature, followed by rinsing with deionised water and 1× Bond Wash to stop the reaction.
Slides were then dehydrated, mounted in synthetic mounting media and scanned with high resolution.

Experimental findings from US10662241B1, “HER3 antigen-binding molecules” (Hummingbird Bioscience Holdings Pte. Ltd., priority 2019, dated 2020) are described below.

Entries after “also recorded” stand apart in the source; their conditions may differ.

T2 sequence (Q62799 20-1339): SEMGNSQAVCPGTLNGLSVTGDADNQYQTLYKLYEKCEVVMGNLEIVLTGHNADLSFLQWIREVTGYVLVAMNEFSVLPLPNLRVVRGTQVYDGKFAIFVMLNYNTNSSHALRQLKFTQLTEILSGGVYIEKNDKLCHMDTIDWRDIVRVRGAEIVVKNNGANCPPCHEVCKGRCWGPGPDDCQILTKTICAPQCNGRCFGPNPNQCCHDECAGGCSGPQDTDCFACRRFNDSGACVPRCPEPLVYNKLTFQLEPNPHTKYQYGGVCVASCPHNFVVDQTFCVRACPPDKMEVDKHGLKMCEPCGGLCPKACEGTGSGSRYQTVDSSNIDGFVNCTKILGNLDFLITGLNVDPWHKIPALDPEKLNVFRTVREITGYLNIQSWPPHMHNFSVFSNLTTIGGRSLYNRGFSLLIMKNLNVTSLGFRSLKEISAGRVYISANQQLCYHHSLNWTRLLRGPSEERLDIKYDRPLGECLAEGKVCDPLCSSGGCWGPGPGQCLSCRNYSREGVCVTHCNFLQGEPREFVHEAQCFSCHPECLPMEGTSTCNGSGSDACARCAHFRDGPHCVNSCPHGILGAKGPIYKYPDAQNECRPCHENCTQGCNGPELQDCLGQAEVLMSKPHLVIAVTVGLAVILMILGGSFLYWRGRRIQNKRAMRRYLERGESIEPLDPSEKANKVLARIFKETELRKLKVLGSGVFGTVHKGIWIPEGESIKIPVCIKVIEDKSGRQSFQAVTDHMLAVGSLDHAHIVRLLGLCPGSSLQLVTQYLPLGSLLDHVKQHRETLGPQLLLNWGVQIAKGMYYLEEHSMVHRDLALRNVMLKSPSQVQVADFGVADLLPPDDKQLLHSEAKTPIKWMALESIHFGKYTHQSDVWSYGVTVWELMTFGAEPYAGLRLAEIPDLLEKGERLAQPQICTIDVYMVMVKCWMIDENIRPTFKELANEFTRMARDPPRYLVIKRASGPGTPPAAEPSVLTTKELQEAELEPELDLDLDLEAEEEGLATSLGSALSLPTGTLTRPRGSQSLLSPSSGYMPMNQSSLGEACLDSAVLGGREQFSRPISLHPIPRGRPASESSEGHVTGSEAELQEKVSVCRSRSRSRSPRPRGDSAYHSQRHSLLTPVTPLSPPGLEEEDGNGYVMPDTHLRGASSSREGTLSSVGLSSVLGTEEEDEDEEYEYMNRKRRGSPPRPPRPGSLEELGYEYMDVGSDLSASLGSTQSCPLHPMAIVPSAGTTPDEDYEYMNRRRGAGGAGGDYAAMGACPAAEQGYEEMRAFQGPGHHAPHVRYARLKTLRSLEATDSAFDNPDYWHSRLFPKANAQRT
T3 sequence (Q61526 20-1339): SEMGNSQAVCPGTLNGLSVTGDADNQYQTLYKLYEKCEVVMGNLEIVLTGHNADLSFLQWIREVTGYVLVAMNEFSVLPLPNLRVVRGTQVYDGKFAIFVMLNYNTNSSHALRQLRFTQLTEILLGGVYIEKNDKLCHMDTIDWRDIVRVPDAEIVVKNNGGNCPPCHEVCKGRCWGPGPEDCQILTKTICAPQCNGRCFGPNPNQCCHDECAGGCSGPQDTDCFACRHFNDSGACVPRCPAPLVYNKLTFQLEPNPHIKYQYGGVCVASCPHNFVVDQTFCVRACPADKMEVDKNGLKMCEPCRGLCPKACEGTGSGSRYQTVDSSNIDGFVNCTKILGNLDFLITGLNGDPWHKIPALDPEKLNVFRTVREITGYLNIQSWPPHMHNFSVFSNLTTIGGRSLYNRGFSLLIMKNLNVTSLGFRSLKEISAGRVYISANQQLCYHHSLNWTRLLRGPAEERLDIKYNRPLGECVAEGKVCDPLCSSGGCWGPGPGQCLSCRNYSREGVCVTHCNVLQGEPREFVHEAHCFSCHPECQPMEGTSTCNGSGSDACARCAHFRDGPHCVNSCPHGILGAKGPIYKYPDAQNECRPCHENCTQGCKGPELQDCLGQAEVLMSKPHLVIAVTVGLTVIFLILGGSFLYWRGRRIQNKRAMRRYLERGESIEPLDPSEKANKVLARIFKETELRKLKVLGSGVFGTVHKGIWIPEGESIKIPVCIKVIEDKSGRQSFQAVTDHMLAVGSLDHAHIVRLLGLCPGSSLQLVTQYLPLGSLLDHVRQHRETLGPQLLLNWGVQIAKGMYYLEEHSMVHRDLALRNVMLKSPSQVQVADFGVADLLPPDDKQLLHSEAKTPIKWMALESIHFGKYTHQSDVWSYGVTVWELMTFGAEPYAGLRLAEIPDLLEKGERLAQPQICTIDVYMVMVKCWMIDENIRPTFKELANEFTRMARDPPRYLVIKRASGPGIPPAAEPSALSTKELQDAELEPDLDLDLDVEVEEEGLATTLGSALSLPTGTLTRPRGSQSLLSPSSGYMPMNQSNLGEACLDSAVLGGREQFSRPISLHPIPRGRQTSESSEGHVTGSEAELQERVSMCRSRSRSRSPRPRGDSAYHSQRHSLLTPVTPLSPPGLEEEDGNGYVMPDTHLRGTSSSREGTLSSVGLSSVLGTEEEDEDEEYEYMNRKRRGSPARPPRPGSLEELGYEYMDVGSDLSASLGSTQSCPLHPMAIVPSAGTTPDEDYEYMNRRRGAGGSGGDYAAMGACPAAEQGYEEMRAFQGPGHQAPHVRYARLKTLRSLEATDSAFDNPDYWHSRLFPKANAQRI

As to “LJM716: anti-HER3 antibody clone LJM716 (Garner et al., Cancer Res (2013) 73: 6024-6035), also referred to as Elgemtumab [reference compound]”, the Internalisation result in the experiment on OVCAR8 cells is “Modest to moderate internalization”; in experiment [1], “significant internalization”.

B1: 10D1: anti-HER3 antibody clone, parental mouse; VH = SEQ ID NO:24, VL = SEQ ID NO:74 (antibody, V domains shown)
VH: DVQLQESGPDLVKPSQSLSLTCTVTGYSITSGYSWHWIRQFPGNKLEWMGSIHYSGGTNYNPSLKSRISITRDTSKNQFFLQLNSVTTEDTATYFCARMTTAPRYPFDYWGQGTTLTVSS
VL: DIVMTQSQKFMSTSVGDRVSVTCKASQIVGSNVAWYQQKPGQSPKPLIYSASYRYSGVPDRFTASGSGTDFTLTITNVQSEDLAEYFCQQYSSHPLTFGAGTKLELK
modifications: 10D1 heavy chain variable region; 10D1 light chain variable region
On to B1, for which the “Inhibition of HER3 phosphorylation and downstream signalling” value in experiment [2] is “inhibit HER3 phosphorylation and downstream signalling”. Besides, the “Competition with MM-121 and/or LJM-716 for binding to HER3” value with human HER3 [3] is “not to compete with MM-121 and/or LJM-716 for binding to HER3; also recorded: distinct and topologically distant epitope of HER3 than MM-121 and/or LJM-716”. Also, the “Inhibition of cell proliferation” value in the experiment with FaDu cells and in the experiment on N87 cells was “dose-dependent inhibition of cell proliferation” each time. Besides, the “Cross-reactivity with rat HER3” value in the experiment with rat HER3 is on record as “substantial cross-reactivity”. In addition, in the experiment with mouse HER3, the “Cross-reactivity with mouse HER3” value is “substantial cross-reactivity”. In addition, the “Cross-reactivity with cynomolgus macaque HER3” value in the experiment with cynomolgus macaque HER3 is “substantial cross-reactivity”. In addition, the “Binding to human EGFR” value with human EGFR is recorded as “not to bind”. In experiment [4], the “Inhibition of intracellular signalling pathways” value was “inhibit PI3K/AKT/mTOR and MAPK signalling”.

B2: 4-35-B2: anti-HER3 antibody clone; VH = SEQ ID NO:127, VL = SEQ ID NO:135 (antibody, V domains shown)
VH: EIQLQQSGPELVKPGASVKVSCKASGYSFTDYNMYWVKQSHGKSLEWIGHINPYNGGTTYNQKFKGRATLTVDKSSSTAFMHLNSLTSEDSAVYFCVSLRWGAMDYWGQGTSVTVSS
VL: QIVLTQSPALMSASPGEKVTMTCSASSSVSYMYWYQQKPRSSPKPWIYLTSNLASGVPARFSGSGSGTSYSLTISSMEAEDAATYYCQQWNSNPYTFGGGTKLEIK
modifications: 4-35-B2 heavy chain variable region; 4-35-B2 light chain variable region
Turning to B2, in the experiment with human HER2, the “Binding to human HER2” value was “bind to human HER2 and human EGFR”. Moreover, the “Cross-reactivity with rat HER3” value with rat HER3 is recorded as “substantial cross-reactivity”. In addition, the “Cross-reactivity with mouse HER3” value with mouse HER3 is recorded as “substantial cross-reactivity”. For the same molecule, the “Cross-reactivity with cynomolgus macaque HER3” value in the experiment on cynomolgus macaque HER3 is on record as “substantial cross-reactivity”. For the same molecule, in the experiment with human EGFR, the “Binding to human EGFR” value was “bind to human HER2 and human EGFR”.

B3: 10D1F: Anti-HER3 antibody 10D1F (VH SEQ ID NO:36, VL SEQ ID NO:83) in mIgG2a format, used for immunohistochemistry (antibody, V domains shown)
VH: QVQLQESGPGLVKPSQTLSLTCTVSGYSITSGYSWHWIRQHPGKGLEWIGSIRYSGGTDYNPSLKSLVTISADTSKNQFSLKLSSVTAADTAVYYCARMTTAPWYPFDYWGQGTTVTVSS
VL: DIQMTQSPSSVSASVGDRVTITCKASQIVGSNVAWYQQKPGKAPEPLIYSASYLYSGVPSRFSGSGSGTDFTLTISSLQPEDFATYYCQQYSSHPLTFGQGTKLEIK
modifications: mouse IgG2a constant regions; 10D1_c89 heavy chain variable region; 10D1_c89 light chain variable region
Regarding B3, the “Staining of malignant and normal human tissue sections” value with human HER3 [5] is given as “preferentially stained malignant human tissue sections, with low cross-reactivity to normal tissue”.
